Here are results for 167 variants from the RNAGym collection of RNA variant scans (doi:10.7554/elife.80360).

Sequences and labels used below:
B1: HDV Ribozyme (parent)
chain: GGCCGGCAUGGUCCCAGCCUCCUCGCUGGCGCCGGCUGGGCAACAUUCCGAGGGGACCGUCCCCUCGGUAAUGGCGAAUGGGACCCA

The series covers variants of B1. In words: self-cleavage, relative activity (ratio to wild type); higher = more cleavage; co-transcriptional.
In the case of C19U A71C, the self-cleavage was found to be 0.0898. On to U20A C48A, for which the self-cleavage was 0.0573. The value for U20A C41A was 0.0396. For the variant U20A C41U, the self-cleavage came out at 0. C19U C36A: the self-cleavage was 0.0639.

With C19U C36G, the self-cleavage worked out at 0.0723.

C19U C21G: the self-cleavage was found to be 0.0339.

Take U20A G53C: the self-cleavage turned out to be 0.0773.

As to U20A G53A, the self-cleavage was determined as 0.122.

As for C19G C57U, the self-cleavage was found to be 0.0528. With C19G C57A, the self-cleavage turned out to be 0.0256. In the case of C19U C26A, the self-cleavage stood at 0.446. Regarding C19U C26G, the self-cleavage stood at 0.356.

For the variant C19U G55C, the self-cleavage stood at 0.164. The value for C19U G55A was 0.225; that for C19G C64G was 0.113. With C19G C64U, the self-cleavage came out at 0.056.

As to C19G G67U, the self-cleavage stood at 0.058. As to C19G G67A, the self-cleavage was determined as 0.0779. On to U20A C66A, for which the self-cleavage worked out at 0. The value for U20A C66G was 0.107. The same measure for U20A C63A: 0.0504.

Consider U20A C63U, for which the self-cleavage was determined as 0.101. For the variant C19U U23A, the self-cleavage is 0.129. For the variant C19G G74U, the self-cleavage was found to be 0.0601. Consider C19G G74C, for which the self-cleavage was 0.0665. Turning to C19G C26U, the self-cleavage is 0.249. Turning to C19G G29U, the self-cleavage was determined as 0. As for C19G G29A, the self-cleavage was determined as 0.0378.

With C19G G29C, the self-cleavage came out at 0.201.

Turning to C19G G34U, the self-cleavage was determined as 0.095.

As for C19G U23A, the self-cleavage worked out at 0. The value for C19G U23G was 0.0811. The value for C19U C41U was 0.173; that for U20A U72G was 0; that for U20A U72A was 0.107. The value for C19U U65G was 0.182. As for C19U U65C, the self-cleavage turned out to be 0.154. As for C19U U65A, the self-cleavage stood at 0.0791. The value for C19U U69A was 0.212; that for C19U U69G was 0.0692; that for U20A C32A was 0.0489.

In the case of C19G A77U, the self-cleavage is 0.0437.

As to C19G A77G, the self-cleavage is 0.0426. The value for C19G A77C was 0.111; that for U20A U37A was 0.0831. The same measure for U20A U37G: 0.277; for C19U G35A: 0.234; for C19U G35C: 0.0831. Consider C19G C32U, for which the self-cleavage was 0.0302.

On to U20C A83C, for which the self-cleavage turned out to be 0.133. The value for U20C A83U was 0.

Take C19U A42U: the self-cleavage amounted to 0.035. As to C19U C44G, the self-cleavage came to 0.0519.

Take U20C A43U: the self-cleavage was 0.0378. For U20C A43C, the self-cleavage is 0.178. Take U20C A43G: the self-cleavage turned out to be 0.0978. In the case of C19G C84G, the self-cleavage amounted to 0.0941. The same measure for U20C C21U: 0.0339; for U20C A45G: 0; for U20C A45C: 0. The same measure for C19G A87U: 0.0839; for C19G A87C: 0.0849; for C19G A87G: 0.16. U20A C85A: the self-cleavage came to 0.26.

As for U20A G54C, the self-cleavage came to 0.196. Regarding U20A G54U, the self-cleavage amounted to 0.0923.

As to C19G C24A, the self-cleavage stood at 0.115. The same measure for C19G C24G: 0. For C19G C24U, the self-cleavage amounted to 0.0339. Turning to C19G A71U, the self-cleavage was 0.

For the variant C19G A71G, the self-cleavage came to 0.158. For the variant C19G C41U, the self-cleavage was 0.155. With C19G C41A, the self-cleavage stood at 0.157. On to C19G C36G, for which the self-cleavage amounted to 0.0264. As to C19U C75U, the self-cleavage was 0.0329. Consider C19U C75A, for which the self-cleavage was determined as 0.0665.

For U20A A70C, the self-cleavage worked out at 0.104.

Regarding U20A A70G, the self-cleavage came out at 0.147. In the case of U20A A70U, the self-cleavage was 0.0615. Turning to C19U G34U, the self-cleavage was found to be 0.0755.

As to U20A G82U, the self-cleavage stood at 0.0875. U20A G82C: the self-cleavage turned out to be 0. For U20A U23G, the self-cleavage amounted to 0.

In the case of U20C A42G, the self-cleavage stood at 0. Turning to U20A C62G, the self-cleavage came out at 0.0639. Take C19G A56U: the self-cleavage worked out at 0.0573. For C19G C58U, the self-cleavage was 0.0272. The same measure for C19G C58A: 0.0256. Turning to C19G G31C, the self-cleavage is 0.104. With C19U G68A, the self-cleavage came out at 0.148. The same measure for C19U G68U: 0.168; for C19U G68C: 0.148; for C19U: 0.152. For U20A G80U, the self-cleavage is 0.0141.

Turning to U20A G80C, the self-cleavage came to 0.0992. For C19G G54U, the self-cleavage is 0.0594. For C19G G54A, the self-cleavage is 0.116. The value for C19G C33U was 0.151. Consider C19U A87C, for which the self-cleavage amounted to 0.235. Turning to C19U A87G, the self-cleavage was found to be 0.107.

In the case of C19U G38U, the self-cleavage was found to be 0. With C19U G38C, the self-cleavage was found to be 0.0875.

For U20A G67U, the self-cleavage was 0.115. For the variant U20A G67A, the self-cleavage is 0.0462. As to U20A G67C, the self-cleavage stood at 0.

As for C19G G25A, the self-cleavage stood at 0.113. For the variant C19G G25C, the self-cleavage is 0.156. For the variant U20A A77C, the self-cleavage was determined as 0.151. For U20A A77G, the self-cleavage was found to be 0.0723. Regarding U20A G39U, the self-cleavage came to 0.0852.

U20A A51U: the self-cleavage came out at 0.104. Turning to U20A A51C, the self-cleavage worked out at 0. Turning to U20A A51G, the self-cleavage amounted to 0. On to C19G G50C, for which the self-cleavage was found to be 0.0528. Turning to C19G G50U, the self-cleavage was 0.108. Consider C19G G50A, for which the self-cleavage was 0.073.

U20A A78G: the self-cleavage stood at 0. The value for U20A A78C was 0.107. Consider U20A A78U, for which the self-cleavage worked out at 0. Regarding U20A C57G, the self-cleavage amounted to 0. Consider U20A C57U, for which the self-cleavage came out at 0.0707. Consider U20A C24G, for which the self-cleavage is 0.0449. Regarding C19U G76U, the self-cleavage turned out to be 0.288. In the case of C19U G76C, the self-cleavage came to 0.277.

In the case of C19U U60A, the self-cleavage was determined as 0.192.

As for C19U U60G, the self-cleavage was found to be 0.182. As for C19U U60C, the self-cleavage stood at 0.0906. The value for C19U G54C was 0.2.

For the variant U20A G38A, the self-cleavage came out at 0.0332. As to U20A G38U, the self-cleavage was found to be 0.122. Regarding C19G A78G, the self-cleavage came to 0.0875. With C19U C22G, the self-cleavage is 0.0692. With U20A A87G, the self-cleavage is 0.0831.

Consider U20A A87C, for which the self-cleavage was determined as 0.0631. In the case of U20A A87U, the self-cleavage was found to be 0.0282.

As to U20C, the self-cleavage stood at 0.129. As for U20A, the self-cleavage amounted to 0.0723. As for C19G G80C, the self-cleavage came to 0.0773. Turning to C19G U79A, the self-cleavage was 0.

For the variant C19G U79C, the self-cleavage is 0.0264.

With C19U G29C, the self-cleavage was 0.122. On to C19G C75G, for which the self-cleavage stood at 0.032. Consider C19U U72C, for which the self-cleavage was 0.0354. Regarding U20A C75U, the self-cleavage stood at 0.0489.

Consider U20A C21U, for which the self-cleavage came out at 0.0898.

As to C19U C66G, the self-cleavage is 0.155. As for C19U C33G, the self-cleavage was determined as 0.0923. The same measure for C19U C33U: 0.234; for U20A G34U: 0. On to C19U A56C, for which the self-cleavage was found to be 0.0936. The same measure for C19U A56G: 0.119; for C19U A45U: 0.136. The value for C19G C85U was 0; that for C19U G80U was 0.0642; that for C19U G80C was 0.112.

Turning to U20C A77C, the self-cleavage was 0.0615. Turning to U20C A77G, the self-cleavage turned out to be 0.208. In the case of C19G C62U, the self-cleavage stood at 0.116. On to C19G C62A, for which the self-cleavage was determined as 0.0264.

As to U20A C64U, the self-cleavage was found to be 0.138. On to U20A G50U, for which the self-cleavage worked out at 0. The same measure for C19G C61G: 0.0378; for C19G C61U: 0.0707; for C19G C49A: 0.0354.

C19U G74A: the self-cleavage was 0.0961.

As for C19U G74C, the self-cleavage was 0.126.
